Test results as given in article PMC3851519 (Developmental cell, 2013).

Columns and labels:
T7-SOCS6 = biological target: T1, T7-SOCS6 (UniProt Q9JLY0 1-533); experiment: pull-down
T1 sequence (looked up): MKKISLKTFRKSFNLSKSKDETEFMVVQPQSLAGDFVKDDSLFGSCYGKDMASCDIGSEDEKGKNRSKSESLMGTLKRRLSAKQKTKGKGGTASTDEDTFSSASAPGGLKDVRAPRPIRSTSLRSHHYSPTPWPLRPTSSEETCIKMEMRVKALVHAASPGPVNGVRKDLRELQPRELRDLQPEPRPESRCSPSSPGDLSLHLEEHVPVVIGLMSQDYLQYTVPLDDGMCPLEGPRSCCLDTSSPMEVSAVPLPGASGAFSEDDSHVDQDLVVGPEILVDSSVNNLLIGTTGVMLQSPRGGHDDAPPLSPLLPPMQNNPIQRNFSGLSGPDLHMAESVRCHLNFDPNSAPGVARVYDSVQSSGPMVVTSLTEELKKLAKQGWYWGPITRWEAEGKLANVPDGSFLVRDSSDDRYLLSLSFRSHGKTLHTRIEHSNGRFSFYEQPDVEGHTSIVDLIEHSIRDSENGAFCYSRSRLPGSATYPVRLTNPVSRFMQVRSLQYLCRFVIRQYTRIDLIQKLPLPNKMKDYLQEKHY

T7-SOCS7 WT = biological target: T2, T7-SOCS7 WT (UniProt Q8VHQ2 1-579); experiment: pull-down
T2 sequence (looked up): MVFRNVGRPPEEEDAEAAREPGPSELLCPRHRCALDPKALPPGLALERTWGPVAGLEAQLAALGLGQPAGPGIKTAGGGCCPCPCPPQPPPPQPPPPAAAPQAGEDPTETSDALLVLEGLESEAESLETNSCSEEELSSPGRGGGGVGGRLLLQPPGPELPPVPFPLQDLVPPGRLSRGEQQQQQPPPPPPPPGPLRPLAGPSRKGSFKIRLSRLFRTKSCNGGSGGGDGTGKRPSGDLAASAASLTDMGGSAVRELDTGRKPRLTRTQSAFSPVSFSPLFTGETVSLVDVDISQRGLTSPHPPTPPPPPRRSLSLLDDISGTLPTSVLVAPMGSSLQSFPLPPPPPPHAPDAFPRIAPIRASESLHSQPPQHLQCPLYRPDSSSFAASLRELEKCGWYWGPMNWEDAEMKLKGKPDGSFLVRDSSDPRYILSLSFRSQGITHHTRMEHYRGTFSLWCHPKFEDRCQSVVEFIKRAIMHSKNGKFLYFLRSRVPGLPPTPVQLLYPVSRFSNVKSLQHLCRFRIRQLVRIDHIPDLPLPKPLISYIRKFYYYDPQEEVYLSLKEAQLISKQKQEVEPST

B1: tyrosine-phosphorylated Dab1-EGFP (natural protein, UniProt P97318 1-588, looked up)
chain: MSTETELQVAVKTSAKKDSRKKGQDRSEATLIKRFKGEGVRYKAKLIGIDEVSAARGDKLCQDSMMKLKGVVAGARSKGEHKQKIFLTISFGGIKIFDEKTGALQHHHAVHEISYIAKDITDHRAFGYVCGKEGNHRFVAIKTAQAAEPVILDLRDLFQLIYELKQREELEKKAQKDKQCEQAVYQTILEEDVEDPVYQYIVFEAGHEPIRDPETEENIYQVPTSQKKEGVYDVPKSQPNSQPLEDFESRFAAATPNRNLSMDFDELLEATKVSAVTQLELFGDMSTPPDITSPPTPATPGDAFLPSSSQTLPGSADVFGSMSFGTAAVPSGYVAMGAVLPSFWGQQPLVQQQIAMGAQPPVAQVIPGAQPIAWGQPGLFPATQQAWPTVAGQFPPAAFMPTQTVMPLAAAMFQGPLTPLATVPGTNDSARSSPQSDKPRQKMGKESFKDFQMVQPPPVPSRKPDQPSLTCTSEAFSSYFNKVGVAQDTDDCDDFDISQLNLTPVTSTTPSTNSPPTPAPRQSSPSKSSASHVSDPTADDIFEEGFESPSKSEEQEAPDGSQASSTSDPFGEPSGEPSGDNISPQDGS
modifications: phosphotyrosine (sites not given; phosphorylated by co-transfected Fyn)
Question: With B1 as the binder, how does the “fold pY.Dab1 bound against SOCS4, 5 or CISH” value (T7-SOCS6) read?
Answer: ~10 fold

Question: And the “fold pY.Dab1 bound against SOCS4, 5 or CISH” value (T7-SOCS7 WT)?
Answer: ~10 fold
